# Results published in patent US20190361013A1 (SCUOLA NORMALE SUPERIORE, published 2019).
# B1: ScFv-58F (scFv, not shown: large carriers)
# scFv: DILMTQSPAIMSASPGEKVTMTCRASSSVSSSYLHWYQQKSGASPKLWIYSTSNLASGVPARFSGSGSGTSYSLTISSVEAEDAATYYCQQYSGYPWTSGGGTKLEIKRSGGSTSGSGKPGSGEGSSSTEVKVEESGGGLVQPGGSMKLSCVASGFTFSNYWMNWVRQSPEKGLEWVAEIRLKSNNYATHYAESVKGRFTISRDDSESSVYLQMNNLRAEDTGIYYCTRRNGPSSRAMDYWGQGTTVTVSS
# notes: Yeast two-hybrid prey from mouse naive SPLINT ScFv library; also called ScFv-58 intrabody
# B2: VH-12A (VHH, not shown: large carriers)
# VHH: QVQLQQSGAELVKPGASVKLSCTASGFNIKDTYMHWVKQRPEQGLEWIGRIDPANGNTKYDPKFQGKATITADTSSNTAYLQLSSLTSEDTAVYYCASLLWWGQGTLVTVSA
# notes: Single mouse VH domain split from ScFv-12A, as yeast two-hybrid prey; also called VH-12X
# Experiments:
# Test in all cases: yeast two-hybrid (IACT), VP16 prey vs LexA bait, secondary screening
# [1] = biological target: T1, LexA-HistoneH3-Gcn5mut-HA
# T1 construct: Control bait; H3 not acetylated; also called LexA-H3-Gcn5mut-HA
# LexA-Gcn5wt-HA = biological target: T2, LexA-Gcn5wt-HA
# T2 construct: Control bait without H3
# LexA-Gcn5mut-HA = biological target: T3, LexA-Gcn5mut-HA
# T3 construct: Control bait without H3
# LexA-Integrase-p300wt-HA = biological target: T4, LexA-Integrase-p300wt-HA (Integrase constitutively acetylated in cis by the fused p300 wt HAT; positions not stated)
# T4 construct: Tethered catalysis bait expressed in L40 yeast from pMICBD1; also called IN-HATwt-HA; screening bait
# T4 chain: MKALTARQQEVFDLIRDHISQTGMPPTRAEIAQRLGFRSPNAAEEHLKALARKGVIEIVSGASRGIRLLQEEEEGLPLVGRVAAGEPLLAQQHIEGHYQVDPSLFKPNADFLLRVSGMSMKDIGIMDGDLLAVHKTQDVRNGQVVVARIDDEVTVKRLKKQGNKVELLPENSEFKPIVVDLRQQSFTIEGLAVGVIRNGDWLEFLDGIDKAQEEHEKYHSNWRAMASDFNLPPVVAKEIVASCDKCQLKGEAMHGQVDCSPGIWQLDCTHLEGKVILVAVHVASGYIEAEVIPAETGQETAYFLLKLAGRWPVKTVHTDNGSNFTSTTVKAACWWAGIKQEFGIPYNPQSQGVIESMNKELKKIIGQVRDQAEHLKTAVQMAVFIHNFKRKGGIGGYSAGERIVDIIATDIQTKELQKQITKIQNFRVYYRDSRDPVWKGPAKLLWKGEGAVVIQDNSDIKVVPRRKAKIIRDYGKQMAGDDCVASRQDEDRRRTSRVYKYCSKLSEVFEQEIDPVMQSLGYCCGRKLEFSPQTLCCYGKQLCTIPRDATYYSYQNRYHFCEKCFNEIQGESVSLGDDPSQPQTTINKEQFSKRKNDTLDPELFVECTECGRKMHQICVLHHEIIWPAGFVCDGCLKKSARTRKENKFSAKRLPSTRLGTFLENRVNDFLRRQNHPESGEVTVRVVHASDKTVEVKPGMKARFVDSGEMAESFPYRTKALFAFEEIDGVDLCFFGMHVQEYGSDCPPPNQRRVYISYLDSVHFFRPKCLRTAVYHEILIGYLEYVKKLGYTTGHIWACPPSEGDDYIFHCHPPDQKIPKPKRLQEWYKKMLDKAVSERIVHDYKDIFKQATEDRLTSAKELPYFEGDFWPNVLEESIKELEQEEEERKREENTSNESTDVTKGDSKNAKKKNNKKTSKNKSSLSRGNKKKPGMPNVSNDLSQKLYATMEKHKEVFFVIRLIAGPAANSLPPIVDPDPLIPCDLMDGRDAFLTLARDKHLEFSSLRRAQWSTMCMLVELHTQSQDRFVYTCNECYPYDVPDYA
# LexA-IN = biological target: T5, LexA-IN
# T5 construct: Non-acetylated Integrase bait; also called LexA-Integrase; IN-stop (non-acetylated)
# T5 chain: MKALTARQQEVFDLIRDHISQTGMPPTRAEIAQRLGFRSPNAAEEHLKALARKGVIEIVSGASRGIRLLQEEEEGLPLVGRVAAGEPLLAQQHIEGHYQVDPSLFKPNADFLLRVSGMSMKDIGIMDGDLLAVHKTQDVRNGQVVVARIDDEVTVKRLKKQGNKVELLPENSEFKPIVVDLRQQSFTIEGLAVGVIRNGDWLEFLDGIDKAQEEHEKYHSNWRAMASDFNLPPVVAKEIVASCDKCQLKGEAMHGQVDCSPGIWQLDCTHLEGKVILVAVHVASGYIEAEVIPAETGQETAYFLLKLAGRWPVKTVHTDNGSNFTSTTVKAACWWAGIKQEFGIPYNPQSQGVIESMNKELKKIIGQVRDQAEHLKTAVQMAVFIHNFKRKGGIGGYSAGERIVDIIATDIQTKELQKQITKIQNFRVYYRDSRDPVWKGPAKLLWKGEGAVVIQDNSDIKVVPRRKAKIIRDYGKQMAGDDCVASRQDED
Binder,binding result [1],binding result (LexA-Gcn5wt-HA),binding result (LexA-Gcn5mut-HA),binding result (LexA-Integrase-p300wt-HA),binding result (LexA-IN)
B1,no binding,no binding,no binding,,
B2,,,,binds,binds
